Assay results as given in article PMC9477748, “Organizing structural principles of the IL-17 ligand–receptor axis” (Nature, 2022).

Experiments:
[1] = biological target: site-specifically biotinylated IL-17RB, immobilized (human) (UniProt Q9NRM6); experiment: SPR; Biacore T100; about 300 RU of site-specifically biotinylated IL-17RB immobilized on a Series S Sensor Chip SA; regeneration 2 M MgCl2; steady-state affinity analysis
[2] = biological target: T1, IL-17RB (18-502) fused to the ALFA-tag, on HeLa cells (human) (UniProt Q9NRM6)
T1 sequence: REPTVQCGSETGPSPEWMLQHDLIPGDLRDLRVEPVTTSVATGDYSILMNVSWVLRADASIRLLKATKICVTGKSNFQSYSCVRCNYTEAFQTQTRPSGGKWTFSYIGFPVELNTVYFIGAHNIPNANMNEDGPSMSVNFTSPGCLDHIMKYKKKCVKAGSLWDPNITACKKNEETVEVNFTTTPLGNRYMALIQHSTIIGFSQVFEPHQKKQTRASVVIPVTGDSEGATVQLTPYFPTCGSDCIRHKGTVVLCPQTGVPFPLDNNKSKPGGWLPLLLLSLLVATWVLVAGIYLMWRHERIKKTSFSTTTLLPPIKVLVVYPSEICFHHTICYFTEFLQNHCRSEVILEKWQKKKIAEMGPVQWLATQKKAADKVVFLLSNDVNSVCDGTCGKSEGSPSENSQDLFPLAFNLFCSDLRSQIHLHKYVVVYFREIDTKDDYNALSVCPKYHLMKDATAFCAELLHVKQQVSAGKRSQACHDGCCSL

IL-17RB (1-288) = biological target: T2, IL-17RB (1-288) (human, UniProt Q9NRM6 18-288); experiment: cryo-EM structure; IL-25 and IL-17RB co-expressed in Expi293F GnTI- cells and co-purified; 2:2 complex (3.18 Å) and higher-order 6:6 complex (4.39 Å) from one sample; HBS 20/150 pH 7.4; details: both partners purified
T2 construct: signal peptide in the construct; IL-17 receptor B (IL-17RB), human, amino acids 1-288; Two constructs are named (C-terminal 3C-proteinC-8xHis in pVLAD6; C-terminal Avitag-6xHis in pD649); also called IL-17 receptor B; apo-IL-17RB
T2 sequence (looked up): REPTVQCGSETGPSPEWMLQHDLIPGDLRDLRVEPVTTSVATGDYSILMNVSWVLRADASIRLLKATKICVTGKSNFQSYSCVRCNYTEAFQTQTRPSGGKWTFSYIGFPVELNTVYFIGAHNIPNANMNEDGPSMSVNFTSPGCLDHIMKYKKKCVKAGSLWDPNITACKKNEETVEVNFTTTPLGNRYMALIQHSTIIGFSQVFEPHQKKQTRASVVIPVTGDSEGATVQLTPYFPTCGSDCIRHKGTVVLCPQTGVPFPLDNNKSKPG

“IL-17RA (1-317) (from UniProt Q96F46 33-317) (receptor)” gave a Kd [1] of 13.8 µM.

B1: IL-25 Y92A (ligand)
chain: THTYSHWPSCCPSKGQDTSEELLRWSTVPVPPLEPARPNRHPESCRASEDGPLNSRAISPWRAELDRDLNRLPQDLYHARCLCPHCVSLQTGSHMDPRGNSELLYHNQTVFYRRPCHGEKGTHKGYCLERRLYRVSLACVCVRPRVMG
For B1, the NF-κB reporter (SEAP) HEK293 cells expressing IL-17RA, ACT1 and endogenous IL-17RB, varying concentrations of IL-25 mutant: EC50 shift relative to WT IL-25 [2] was over 3 log-fold.

B2: IL-25 (amino acids 30-177) (ligand, human, UniProt Q9H293 30-177, looked up)
chain: THTYSHWPSCCPSKGQDTSEELLRWSTVPVPPLEPARPNRHPESCRASEDGPLNSRAISPWRYELDRDLNRLPQDLYHARCLCPHCVSLQTGSHMDPRGNSELLYHNQTVFYRRPCHGEKGTHKGYCLERRLYRVSLACVCVRPRVMG
notes: IL-25 (IL-17E), human, amino acids 30-177; Two constructs are named (Igk signal peptide with C-terminal 3C-cleavable Avitag-6xHis in pEG BacMam; HA signal peptide with C-terminal Avitag-6xHis in a lentiviral vector); also called IL-17E; WT IL-25
B2: binds (IL-17RB (1-288)).
